In the DeepSol protein solubility set:

Assay: soluble on expression in E. coli; label from the status in PepcDB or PDB records

Row | Sequence | soluble on expression in E. coli
1 | MEKQNFVVLKNICKRFGSNTVIGNLDLEIKKGSLVTLLGPSGCGKTTVLRLVAGLEKPTSGQIFIDGEDVTERSIQQRDICMVFQSYALFPHMSLYENVAYGLKMLKLPSEEVRQRVDEALKIVDLEGMGERYVDQISGGQQQRVALARALVLKPKVLLFDEPLSNLDANLRRSMRETIRELQQRFDITSLYVTHDQAEAFAVSDTVIVMKQGDIMQIGTPQELYKAPKSMFMANFMGEANMFQGHFDGQQIHINGYAIDADLEVTRDKPNGEYQIGVRPEAITLHTQGSESQACQILKSAYMGSMYEVTVKWHDQELLLQLNSAQFNHTLTQHAYVVFNPRGLFLLPYAE | not soluble
2 | MEKSIKIGFIGLGAMGKPMAINLLKEGVTVYAFDLMEANVAAVVAQGAQACENNQKVAAASDIIFTSLPNAGIVETVMNGPGGVLSACKAGTVIVDMSSVSPSSTLKMAKVAAEKGIDYVDAPVSGGTKGAEAGTLTIMVGASEAVFEKIQPVLSVIGKDIYHVGDTGAGDAVKIVNNLLLGCNMASLAEALVLGVKCGLKPETMQEIIGKSSGRSYAMEAKMEKFIMSGDFAGGFAMDLQHKDLGLALEAGKEGNVPLPMTAMATQIFEGGRAMGLGREDMSAVIKVWEQMTGVSVSGGQ | soluble
3 | MEKTVNPFRIGIAPISWVNDDIPGLGDHYTQDQVLSEMAELGYVATEMGRLFSQDPPSLRAKLNQYGIELASKFIGVLFSDRSRLEEELETFQSWAEYLHDMGCKYAIVCEMGGSMHWDPRRAPEEKTIQRLTDSEWESLVDGLHRAAHICQELGMKLVYHFHAGTVVETAEEIDRLMELTDPNLVHLLYDTGHALYGGYDPVELLHRYADRIQYVHLKDIRRDVLEQVRREQLDFRTAVLRGMFTVPGDGCIDFVPIFSKLIEMGYNGWIIVEAEQDPAVAHPYTYAKMAKEYIDRLVHHLLAAQKR | not soluble
4 | MEKYQVKFMPDQQVIEVEKGTSLLKAASQAGIFIKSSCGGKGTCGACKVTVISGEAKSERTGNLSPEQLSRGVRLSCHTFVEGDLTVEVPPESRLQAHQVLLENANAALLTETSKDLLTYYGYHPLARKVNIRCSEPTLTDNAGDWARLSLELKRVLQSDKPLTIPLSVLQTLPETLRQAHWDLSVILTDLELGYTVLHVEPANDRPCYGLAIDVGTTTVVVYLVDLDSGEIVDKQGSYNKQAQFGDDVISRIVYAVDSKENMAEIQKAVVDTVNALIDGILERQSLTSQDIASAVIAGNTTMSQLFLGINPRYIRLEPYIPTVNSTPAVSAREIGLRLLPEALIHTYPSVASYVGGDIVSGALATDMANSDEIILFIDIGTNGEIVLGNKDWLVSCACSAGPCFEGGGILFGMRAMPGAIERVDIDPESLDVKLKVVGKIAPVGICGSGLVDCLAKLRKAGIIDRAGNFQLEHPSQSARIRATEDDKEFVLAWAHQAGGDKDIVISENDVKNLIRAKGAIYAGIRSLLQTVALEIDMIERIVIGGGFGNYLNVHDSVEIGLLPDLPQEKFEFIGNSSVKGARLALLSQKAWNEAADLARKMTYIELSIGTTFMDEFVSALFLPHTDLSLFPSVEGTFLEHHHHHH | soluble
5 | MELARPRSNFQSDLDFCPDCGSVLPLPGIQDTVICSRCGFSIDVRDCEGKVVKTSVVFNKLGATIPLSVDEGPELQGPVIDRRCPRCGHEGMAYHTRQMRSADEGQTVFYTCINCKFQEKEDS | soluble
6 | MELHIWPSDFGLPTIDVVSLQFLACSKMCASPVRVIQSTRPWRSPSGELPMVAQTEGEAKPVTDFEKFVDILKKCGQDVVIDADLTTIEKAQLDAFSCYLHHNLYPAVMHTFWTDELNYNTVTQYWYASHLHFPYNLYYLEKRRKKALRLLAGKNDTEILKEAFMALNTLSTKLGDNKFFCGNKPTSLDALVFGYLAPLLRVPLPNDRLQVQLSACPNLVRFVETVSSIYLPLGEDELKRQQANRKMWQSRISKAKADKEAAKTTEEASESLPEEPPMRDAILFTLGALTLSLVFAIHTGLIQVSVEEEISE | not soluble
7 | MELISVTKDNLEQEHICCAISNNKDCQVLSKKNWLNEQFEDGLVFLKGNVRGKCFIEYMPAEKAWAPVEADGYMYINCLWVSGQFKGQGYSNLLLEECIRDSREKGRLGLVVLTSKKKMPYLSDPKFLGYKGFIRADSAEPYFELFYLPFEADAPKPQFKEQVRQPRTEENGFVLYYTRQCPFTAKYVPLIESAAEENNIPFKAVLFKTSGEARNAPAPFTTYSLFYNGRFITNEILSEKRFEKILEAEGLG | not soluble
8 | MELLCPAGNLPALKAAIDNGADAVYIGLKDDTNARHFAGLNFTDKKLQEAVNYVHSRKRKLHIAINTFAHPDGYARWQRAVDMAAQLGADALILADLAMLEYAAERYPQVERHVSVQASATNDEAIRFYQRHFDVARVVLPRVLSMHQVKQLSRTSPVPLEVFAFGSLCIMAEGRCYLSSYLTGESPNTVGACSPARFVRWQQTPQGMESRLNDVLIDRYEDHENAGYPTLCKGRYRVDGQRYHALEEPTSLNTLELLPELFAANIASVKIEGRQRSPAYVSQVAKVWRQAIDLYQANPAQFAAKAEWMEQLGAMSEGTQTTLGAYHRKWQ | not soluble
9 | MELVAYAMAAKLITETVQITINSISETLETINSDPTVRIDNLNELKRRNDEAHSQYMKELKEAREESDDALAKRQATADSQISELINSNNEAIRELQKKFDEDAAAYDRSIKETTREHDQKMKEMRSETREAQEKAERNHREKMSKIKEDHDKERVAALQKIDAAKKEGAEMIALVEMEKQKIVRERADEMNEHHKNMETMTKEYHQKREEIHEVIKNKKLDILKDKREHQRIEHEKISENMKNAFNALLNVQRENNAKHLVSNFQQLFEPVEDVKKLLDSVKIKIELVDGKDPKIEAEQLYDLEEIQAKKSIFENRIRRLRSILIHSSFTDRKLHEICSTTISNIETLMNKSDILSVCHHFPRAVEKQDLKKIKHYADMARSLSDTFSQELGNIIDTFSTSSGMYIIEKEHQEAIEN | soluble
10 | MEMFKMSREMLQLAEALASEKNVDAEVVFQALEFALSTAAKKKADREHMDVRVQINRDTGEYQTFRRWLIVADEDYTYPDVEKTIEEIQEEIPDTTIQIGEYYEEQLPNEGFGRQAAQTAKQIILQRIRDAEREQNLNEFLAVKEDIVSGTVKRVERHGIIVEVVAGKLDALIPRDQMIPRENFRSGDRIRALFLRVEEIGNTGRKQIILSRTSGDFLVKLYANEVPEIADGMLEIRAVARDPGQRAKVAVKANDQRIDPQGTCIGVRGSRVNAVSNELSGERIDVVLWSPEPAQFVMSALSPAEVSRIVIDEDKHAVDVIVAEDRLALAIGRGGQNVRLASDLTGWQLNIMTSAEADERNAAEDAAIRRLFMNHLNVDEETADVLVQEGFATLEEVAYVPAAELLAIEGFDEEIVDMLRNRARDAILTMAIAAEEKLGEVSDDMRNLEGVDADMLLSLAEAGITTRDDLAELAVDELIEITGVNEETAKAVILTAREHWFTEDKLEHHHHHH | soluble
11 | MEMISNNLNWFVGVVEDRMDPLKLGRVRVRVVGLHPPQRAQGDVMGIPTEKLPWMSVIQPITSAAMSGIGGSVTGPVEGTRVYGHFLDKWKTNGIVLGTYGGIVREKPNRLEGFSDPTGQYPRRLGNDTNVLNQGGEVGYDSSSNVIQDSNLDTAINPDDRPLSEIPTDDNPNMSMAEMLRRDEGLRLKVYWDTEGYPTIGIGHLIMKQPVRDMAQINKVLSKQVGREITGNPGSITMEEATTLFERDLADMQRDIKSHSKVGPVWQAVNRSRQMALENMAFQMGVGGVAKFNTMLTAMLAGDWEKAYKAGRDSLWYQQTKGRASRVTMIILTGNLESYGVEVKTPARSLSAMAATVAKSSDPADPPIPNDSRILFKEPVSSYKGEYPYVHTMETESGHIQEFDDTPGQERYRLVHPTGTYEEVSPSGRRTRKTVDNLYDITNADGNFLVAGDKKTNVGGSEIYYNMDNRLHQIDGSNTIFVRGDETKTVEGNGTILVKGNVTIIVEGNADITVKGDATTLVEGNQTNTVNGNLSWKVAGTVDWDVGGDWTEKMASMSSISSGQYTIDGSRIDIGSVDHHHHHH | soluble
12 | MENAKMNSLIAQYPLVKDLVALKETTWFNPGTTSLAEGLPYVGLTEQDVQDAHARLSRFAPYLAKAFPETAATGGIIESELVAIPAMQKRLEKEYQQPISGQLLLKKDSHLPISGSIKARGGIYEVLAHAEKLALEAGLLTLDDDYSKLLSPEFKQFFSQYSIAVGSTGNLGLSIGIMSARIGFKVTVHMSADARAWKKAKLRSHGVTVVEYEQDYGVAVEEGRKAAQSDPNCFFIDDENSRTLFLGYSVAGQRLKAQFAQQGRIVDADNPLFVYLPCGVGGGPGGVAFGLKLAFGDHVHCFFAEPTHSPCMLLGVHTGLHDQISVQDIGIDNLTAADGLAVGRASGFVGRAMERLLDGFYTLSDQTMYDMLGWLAQEEGIRLEPSALAGMAGPQRVCASVSYQQMHGFSAEQLRNTTHLVWATGGGMVPEEEMNQYLAKGR | soluble
13 | MENESKTINIELPEEIAQGNYCNLCIVMHSPSEFVLDFIRMVPNRDTARVQNRIILTPDNAKRLLTTLSDNIHRYEVEHGEIHTEQRVSDATFTFPTKIKGEA | soluble
14 | MENKLKLVVVGDTYTGKTSLLVAYTKKQFLDNYTTTVFDNWAVSVHIDNKNYAVNLFDTAGQGNYEQIRCLSYPHANVFLVCFSMIDRKTLESCRSTWIPEIRKYAGDNVPIMLVGTKNDLVDDADSRNTVTEDYAKRVAHEIGCHKFYSCSALTHKGLKRVFDESFLAAVGVKLEEETPNPCCTIL | not soluble
15 | MENKRTLVVALGGNALLKRGEPLEADIQRKNIELAARTIAQLTRQWRVVLVHGNGPQVGLLALQNSAYANVTPYPLDILGAESQGMIGYMLQQALKNHLPEREISVLLTQVEVDANDPAFLNPTKYIGPIYDEAQARALQAEKGWVFKADGNAFRRVVPSPQPKRIVENDAIRALISRDHLVICNGGGGVPVVEKADGYHGIEAVIDKDLSAALLASQIHADALLILTDADAVYLDWGKPTQRPLAQVTPELLREMQFDAGSMGPKVTACAEFVSHCRGIAGIGSLADGQAILAGEKGTLIRCETADVDA | not soluble
16 | MENNTILHNYQDWLEHHKMPAGKKKTLVAAIELFSQQGYNGTSTAQIAEKAGISQATIFKYFKTKSDLLSEIMQPMIPELKRDFFPKLQTYTKLEEVVHFIVQDRFQFLTQNADLIKILIQEALVNVKLRKTLLTNIQLTISKDFMAYWQTLKQINPQINPNLSGIEVIRTNVGLLFAYFTQRFILNIPTPSEQKDLLLIEKQILTLLILDTH | not soluble
17 | MEPKVYKPPISKAIGLVVGSVLPVNPRDLEKMMRRLGIKVEQLSADEARIVLGSGETMVFRSPTVIVMRAKGQPPMVYLVGDYTVEKPREETAAEITEEDVALVAEQAGVSMEEARKALEESGGDIAEAILRLKGEE | not soluble
18 | MEPMHKINKVEVRNLQIEDYIQLSQSFKRVYADKDVFWTHEQIETLIRIFPEGQVVTVVDDKIVGCALSIIVDYDMVKGDHTYAKVTGNETFCTHNPEGNILYGIEVFIHPDYRGLRLARRMYEYRKELCEKLNLKAIMFGGRIPNYYKYADTMRPKEYLDKVRSREIYDPVLTFQLSNDFHVRRVMKNYLP | not soluble
19 | MEPRFAGYAQKVRDSFARQPVMATLGARIDTLLPGRVELCMPYDRALTQQHGFLHAGIVSTVLDSACGYAAFSLMEEEAAVLTVEFKVNFLNPAEGERFAFRAEVVKPGRTLTVATATAYAFRDGEERAIATMTATLMALIGLEHHHHHH | soluble
20 | MEQQQRYISVLDIGTSKVLALIGEVQDDDKINIVGLGQAPSRGLRAGMVTNIDATVQAIRQAVNDAELMADTKITHVTTGIAGNHIRSLNSQGVVKIKDGEVTQADIDRAIETAKAINIPPDQKILDAVVQDYIIDTQLGVREPIGMSGVRLDTRVHIITGASTAVQNVQKCIERCGLKSD | not soluble
